Measurements: article PMC7351214

Assays:
[1] = biological target: C5b6 complex generated on convertase-labelled E. coli from C5 and C6 (human) (UniProt P01031)
[2] = biological target: C5b6 complex generated on convertase-labelled E. coli from C5 and C6 (human) (UniProt P01031); remark: listed apart in the source
[3] = biological target: C5b6 complex generated on convertase-labelled E. coli from C5 and C6 (human) (UniProt P01031); remark: listed apart in the source

UniProt P01031, sequence (P01031 19-673, chain 1 of 3): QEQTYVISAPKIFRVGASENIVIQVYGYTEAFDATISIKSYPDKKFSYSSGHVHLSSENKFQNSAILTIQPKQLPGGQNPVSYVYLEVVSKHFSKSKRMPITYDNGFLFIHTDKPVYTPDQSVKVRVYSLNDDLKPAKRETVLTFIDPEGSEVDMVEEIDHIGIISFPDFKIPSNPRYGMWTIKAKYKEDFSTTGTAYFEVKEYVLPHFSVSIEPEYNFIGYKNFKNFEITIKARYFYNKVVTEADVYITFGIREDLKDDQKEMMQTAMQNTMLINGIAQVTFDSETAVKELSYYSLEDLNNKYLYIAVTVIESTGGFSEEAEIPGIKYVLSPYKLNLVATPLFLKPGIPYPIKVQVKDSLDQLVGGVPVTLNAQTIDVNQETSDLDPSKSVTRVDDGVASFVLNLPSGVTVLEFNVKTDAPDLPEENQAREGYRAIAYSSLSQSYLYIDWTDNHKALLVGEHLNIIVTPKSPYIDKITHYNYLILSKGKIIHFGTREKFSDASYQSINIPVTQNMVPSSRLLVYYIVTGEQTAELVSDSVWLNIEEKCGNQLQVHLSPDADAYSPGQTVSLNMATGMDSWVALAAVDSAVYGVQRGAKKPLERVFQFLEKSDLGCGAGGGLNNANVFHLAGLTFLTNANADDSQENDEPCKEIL
UniProt P01031, sequence (P01031 752-1676, chain 2 of 3): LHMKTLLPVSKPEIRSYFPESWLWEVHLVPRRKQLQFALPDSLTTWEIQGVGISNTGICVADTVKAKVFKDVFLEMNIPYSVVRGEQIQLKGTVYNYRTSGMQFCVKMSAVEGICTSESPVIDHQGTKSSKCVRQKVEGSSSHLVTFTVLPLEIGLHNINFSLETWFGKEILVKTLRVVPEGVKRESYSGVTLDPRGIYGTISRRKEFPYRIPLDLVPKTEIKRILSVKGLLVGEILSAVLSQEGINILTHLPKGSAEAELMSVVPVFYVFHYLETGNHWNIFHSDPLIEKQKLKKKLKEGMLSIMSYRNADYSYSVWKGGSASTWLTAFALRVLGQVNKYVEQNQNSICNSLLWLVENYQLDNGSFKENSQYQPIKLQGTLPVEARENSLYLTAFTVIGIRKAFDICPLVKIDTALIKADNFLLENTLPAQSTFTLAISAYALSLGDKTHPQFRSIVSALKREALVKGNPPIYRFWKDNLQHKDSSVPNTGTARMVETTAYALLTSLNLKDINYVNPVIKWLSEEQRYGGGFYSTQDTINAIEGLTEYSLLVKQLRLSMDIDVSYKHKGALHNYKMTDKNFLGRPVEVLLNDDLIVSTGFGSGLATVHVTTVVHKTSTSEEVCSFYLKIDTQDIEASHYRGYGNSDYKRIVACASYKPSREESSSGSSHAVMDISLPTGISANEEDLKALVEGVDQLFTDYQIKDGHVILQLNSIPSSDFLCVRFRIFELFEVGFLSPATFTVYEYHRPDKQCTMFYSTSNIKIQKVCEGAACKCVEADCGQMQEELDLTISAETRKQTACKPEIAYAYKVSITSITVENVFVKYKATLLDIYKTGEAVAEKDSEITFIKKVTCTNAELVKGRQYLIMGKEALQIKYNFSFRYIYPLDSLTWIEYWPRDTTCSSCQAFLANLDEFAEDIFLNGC
UniProt P01031, sequence (P13671 22-934, chain 3 of 3, further chain): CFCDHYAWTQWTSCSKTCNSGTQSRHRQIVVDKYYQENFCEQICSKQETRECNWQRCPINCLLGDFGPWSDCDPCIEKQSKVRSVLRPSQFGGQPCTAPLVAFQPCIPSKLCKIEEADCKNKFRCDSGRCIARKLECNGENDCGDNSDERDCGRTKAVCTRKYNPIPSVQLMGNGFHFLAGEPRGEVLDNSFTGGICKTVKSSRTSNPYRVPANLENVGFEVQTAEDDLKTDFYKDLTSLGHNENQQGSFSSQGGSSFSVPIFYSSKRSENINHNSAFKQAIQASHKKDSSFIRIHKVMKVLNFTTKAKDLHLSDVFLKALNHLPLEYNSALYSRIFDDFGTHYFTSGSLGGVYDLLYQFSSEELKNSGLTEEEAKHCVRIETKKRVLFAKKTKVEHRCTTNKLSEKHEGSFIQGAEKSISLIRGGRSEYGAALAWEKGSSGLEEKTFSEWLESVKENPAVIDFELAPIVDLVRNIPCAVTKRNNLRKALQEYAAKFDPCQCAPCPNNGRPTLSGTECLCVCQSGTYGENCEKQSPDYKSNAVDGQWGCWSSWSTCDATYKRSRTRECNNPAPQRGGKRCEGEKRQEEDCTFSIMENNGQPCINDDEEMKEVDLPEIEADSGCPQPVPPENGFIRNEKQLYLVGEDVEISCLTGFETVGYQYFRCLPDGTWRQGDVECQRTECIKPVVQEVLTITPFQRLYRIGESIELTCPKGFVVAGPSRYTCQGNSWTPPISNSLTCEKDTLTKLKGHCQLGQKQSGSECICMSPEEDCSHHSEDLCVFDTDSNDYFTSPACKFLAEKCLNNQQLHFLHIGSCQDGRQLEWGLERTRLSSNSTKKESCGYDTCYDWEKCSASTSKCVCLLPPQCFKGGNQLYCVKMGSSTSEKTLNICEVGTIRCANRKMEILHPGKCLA

deposition of C6-Cy5 (geoMFI) on convertase-labelled E. coli MG1655 after 60 minutes, C5b6 generated in the presence of C7 against in its absence [2]: 10 fold | deposition of C9-Cy5 (geoMFI) on E. coli MG1655, C5b6 generated in the absence of C7 against in the presence of C7 [3]: 50 fold | fluorescence ratio C9:C6 on E. coli MG1655, C5b6 generated in the presence of C7 against in the absence of C7 [3]: 10 fold
Substance: His-tagged complement component C7 (from UniProt P10643 23-843) (natural protein)
percentage of Sytox positive (inner membrane damaged) E. coli MG1655 after addition of C8 and C9; C7 present from t = 0 (~100%) or added 60 minutes after C5b6 generation was initiated (~6%) [1]: 100%
